Data: doi:10.1101/2021.03.31.438001

Target: Pr17 (OAD22177.1), secreted protein of Candidatus Thiomargarita nelsonii (Candidatus Thiomargarita nelsonii)
Experiment: non-reducing SDS-PAGE

Pr17 (OAD22177.1), secreted protein of Candidatus Thiomargarita nelsonii (natural protein)
stoichiometry N: 2
